Test results published in US20160346402A1 (Bayer, published 2016).
Substitutions are numbered along the chain they refer to.

T1: TPP-1984, hTNFRSF12 amino acids 28-68-CT-His (human)
T1 construct: Monomeric ectodomain with C-terminal deletion of amino acids 69 to 80; also called TTP-1984; TWEAKR (28-68)-HIS
T1 chain: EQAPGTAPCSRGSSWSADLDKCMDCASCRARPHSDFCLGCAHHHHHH

B1: 18.3.3(TPP-2193) (antibody, mouse IgG2a, kappa, V domains shown)
VH: EVKLGESGGGLVQPGGSMKLSCVASGFPFTKYWMNWVRQSPEKGLEWVAEIRLKSDNYATHYAESAKGRFTISRDDSRSSVYLQMNNLRAEDTAIYYCSPTYADTMDYWGQGTSVTVSS
VL: DIVLTQSPASLAVSLGQRATISCKASQSVSTSTYSYMQWYQQRPGQSPKLLIKYASKLDSGVPARFSGSGSGTDFTLNIHPVEEEDTATYYCQHSWELPYTFGGGTRLEIKR
notes: murine IgG2a; variable domains from WO2009/020933 with a murine IgG2 constant region added; biotinylated IgG in the ELISA
B2: TPP-2084 (antibody, V domains shown)
VH: EVQLLESGGGLVQPGGSLRLSCAASGFTFSPYPMMWVRQAPGKGLEWVSYISPSGGSTHYADSVKGRFTISRDNSKNTLYLQMNSLRAEDTAVYYCARGGDTYFDYFDYWGQGTLVTVSS
VL: not shown
notes: human IgG1
B3: TPP-2090 (antibody, V domains shown)
VH: B2 VH with M35I
VL: DIQMTQSPSSLSASVGDRVTITCRASQSISGYLNWYQQKPGKAPKLLIYQASSLQSGVPSRFSGSGSGTDFTLTISSLQPEDFATYYCQQSYTSPFITFGQGTKVEIKR
notes: human IgG1; also called anti-TWEAKR AK-1
B4: P3G5(TPP-2195) (antibody, mouse IgG2a, kappa, V domains shown)
VH: QVQLQQSGPEVVRPGVSVKISCKGSGYTFTDYGIHWVKQSHAKSLEWIGVISTYNGYTNYNQKFKGKATMTVDKSSSTAYMELARLTSEDSAIYYCARAYYGNLYYAMDYWGQGTSVTVSS
VL: DIVLTQSPASLAVSLGQRATISCRANKSVSTSSYSYMHWYQQKPGQPPKLLIKYASNLESGVPARFSGSGSGTDFILNIHPVEEEDAATYYCQHSRELPFTFGSGTKLEIKR
notes: murine IgG2a; variable domains from WO2009/140177 with a murine IgG2 constant region added; biotinylated IgG in the ELISA
B5: P4A8(TPP-1324) (antibody, human IgG1, kappa, V domains shown)
VH: QVQLVQSGAEVKKPGASVKVSCKGSGYTFTDYGMHWVRQAPGQGLEWMGVISTYNGYTNYNQKFKGRVTMTVDKSTSTAYMELRSLRSDDTAVYYCARAYYGNLYYAMDYWGQGTLVTVSS
VL: B4 VL with N26S, I76S, V82M, E85D, A87T, T89M, Y91F, S104G
notes: human IgG1; variable domains from WO2009/140177 with a human IgG1 constant region added; biotinylated IgG in the ELISA
B6: 136.1(TPP-2194) (antibody, mouse IgG2a, kappa, V domains shown)
VH: EVKLEESGGGLVQPGGSMKLSCVASGFTFNNYWMSWVRQSPEKGLEWLAEIRLKSDNYATHYAESVKGKFTISRDDSKSRLYLQMNNLRAENTGIYYCTGGFADYFDYWGQGTTLTVSS
VL: B1 VL with A12T, K24R, T33S, S47P, S56T, K57N, T87A, L98I, R107K
notes: Comparative antibody; murine IgG2a
B7: TPP-2090 (antibody, human IgG1, kappa, V domains shown)
VH: B2 VH with M35I
VL: B3 VL
notes: Human IgG1; biotinylated (biotin-LC-NHS) when used as soluble partner in the ELISAs; also called anti-TWEAKR AK-1
B8: TPP-2084 (antibody, human IgG1, kappa, V domains shown)
VH: B2 VH
VL: not shown
notes: Human IgG1; biotinylated when used as soluble partner in the ELISAs
B9: P3G5(TPP-2195) (antibody, mouse IgG2a, kappa, V domains shown)
VH: B4 VH
VL: B4 VL
notes: as for B6

What follows are binders tested against T2, hTNFRSF12 amino acids a28-80-H60K-hIgG1-Fc (human) (assay: ELISA: TWEAKR-Fc construct coated at 62 ng/ml, biotinylated IgG titrated from 100 nM; token + marks IC50 of 1 to […] pM).
T2 construct: TWEAKR-Fc mutein, coated on the ELISA plate; also called TPP-1989
Protocol: (§1) To obtain dose-reaction data, the different TWEAKR-Fc muteins were coated at a low concentration (62 ng/ml) onto a 384-well Maxisorb ELISA plate, and a serial 2-fold dilution of biotinylated IgG beginning with a concentration of 100 nM was used as a soluble binding partner. Detection was carried out using streptavidin-HRP and Amplex Red.
(§2) IgGs were biotinylated using an about 2-fold molar excess of biotin-LC-NHS (Pierce; Cat. No. 21347) according to the instructions of the manufacturer and desalted using Zeba desalting columns (Pierce; Cat. No. 89889).

Binding result, binds:
B1
B2
B3
B4
B5

The binders below were run against T3, hTNFRSF12 amino acids a28-80-R56P-hIgG1-Fc (human) in the same assay as above.
T3 construct: TWEAKR-Fc mutein, coated on the ELISA plate; also called TPP-2683
Protocol: as §1, §2

Binding result, binds:
B2
B3
B4

What follows are binders tested against T4, hTNFRSF12 amino acids a28-80-S40R-hIgG1-Fc (human) in the same assay as above.
T4 construct: TWEAKR-Fc mutein, coated on the ELISA plate; also called TPP-1987
Protocol: as §1, §2

Binding result, binds:
B1
B2
B3
B4
B5

What follows are binders tested against T5, hTNFRSF12 amino acids a28-80-hIgG1-Fc (human) in the same assay as above.
T5 construct: wild-type TWEAKR-Fc (dimeric Fc fusion), coated on the ELISA plate; also called TPP-599; HUMAN-TNFRSF12Aaa28-80-hIgG1-Fc
Protocol: as §1, §2

Binding result, binds:
B1
B2
B3
B4
B5

Each binder was assayed against T6, hTNFRSF12 amino acids a28-80-T33Q-hIgG1-Fc (human) in the same assay as above.
T6 construct: TWEAKR-Fc mutein, coated on the ELISA plate; also called TPP-1986
Protocol: as §1, §2

Binding result, binds:
B1
B2
B3
B4
B5

Each binder was assayed against T7, hTNFRSF12 amino acids a28-80-M50A-hIgG1-Fc (human) in the same assay as above.
T7 construct: TWEAKR-Fc mutein, coated on the ELISA plate; also called TPP-1988
Protocol: as §1, §2

Binding result, binds:
B1
B2
B3
B4
B5

The binders below were run against T8, hTNFRSF12 amino acids a28-80-L65Q-hIgG1-Fc (human) in the same assay as above.
T8 construct: TWEAKR-Fc mutein, coated on the ELISA plate
Protocol: as §1, §2

Binding result, binds:
B1
B2
B3
B4
B5

Biological target: T1, TPP-1984, hTNFRSF12 amino acids …
Assay: ELISA: TPP-1984 (TWEAKR 28-68-HIS) coated at 1 µg/ml; biotinylated IgG at 0.08 µg/ml (open bars) and 0.3 µg/ml (solid bars); streptavidin-HRP, Amplex Red; Y = signal [Rfu]
Protocol: FIG. 5: Interaction of TWEAKR (28-68) with antibodies according to the invention and reference antibodies. What is shown is the result of an ELISA with TWEAKR (28-68)-HIS coating (TTP-1984, 1 μg/ml) and 0.08 μg/ml (open bars) and 0.3 μ/ml (solid bars) of biotinylated IgG as soluble binding partner. Detection was carried out using streptavidin-HRP and Amplex Red substrate.
(§3) Detection was carried out using streptavidin-HRP and Amplex Red substrate. IgGs were biotinylated using an about 2-fold molar excess of biotin-LC-NHS (Pierce; Cat. No. 21347) according to the instructions of the manufacturer and desalted using Zeba desalting columns (Pierce; Cat. No. 89889).

Binding result, binds:
B6
B7
B8

What follows are binders tested against T9, TPP-2203, TWEAKR-ECD-34-68-hIgGFc-His (human) (assay: ELISA: TPP-2203 (TWEAKR 34-68-Fc) coated at 1 µg/ml; biotinylated IgG at 0.08 µg/ml (open bars) and 0.3 µg/ml (solid bars); streptavidin-HRP, Amplex Red; Y = signal [Rfu]).
T9 construct: also called TWEAKR (34-68)-Fc fusion protein; N- and C-terminally truncated ectodomain
Protocol: FIG. 4: Interaction of the cysteine-rich domain of TWEAKR with antibodies according to the invention and reference antibodies. What is shown is the result of an ELISA with TWEAKR (34-68)-Fc fusion protein coating (TPP-2203, 1 μg/ml) and 0.08 μg/ml (open bars) and 0.3 μ/ml (solid bars) of biotinylated IgG as soluble binding partner. Detection was carried out using streptavidin-HRP and Amplex Red substrate.
as §3

Binding result, binds:
B6
B7
B8
B9

What follows are binders tested against T10, TPP-2202, TWEAKR-ECD-28-80-hIgGFc-His (human) (assay: ELISA: TPP-2202 (TWEAKR 28-80-Fc) coated at 1 µg/ml; biotinylated IgG at 0.08 µg/ml (open bars) and 0.3 µg/ml (solid bars; legend of FIG. 3 prints 0.03); streptavidin-HRP, Amplex Red; Y = signal [Rfu]).
T10 construct: also called TWEAKR-Fc fusion protein; full-length ectodomain Fc fusion
Protocol: FIG. 3: Interaction of the TWEAKR ectodomain with antibodies and reference antibodies. […] Detection was carried out using streptavidin-HRP and Amplex Red substrate.
as §3

Binding result, binds:
B6
B7
B8
B9
